Where two headings read alike, the source gives them in different places.
Assays:
[1] = tested on: esophageal squamous cell carcinoma PDX LD1-2015-361318; assay: In vivo anti-tumor activity against human esophageal squamous cell carcinoma PDX LD1-2015-361318; conditions: NU/NU mice, i.v. 5 mg/kg, once a week, 2 doses, vs negative control
Protocol: (§1) 6-week-old NU/NU mice, female, weighing 18-21 g, were purchased from Beijing Vital River Laboratory Animal Technology Co., Ltd. The mice were subcutaneously inoculated with esophageal squamous cell carcinoma tumor mass (specimen no. 361318, obtained from Xi'an LIDE Biotech Co. Ltd.). When the average tumor volume reached 150 mm^3, the antibody-drug conjugate Ab13-T1000-exatecan as prepared in Example 5 was administered intravenously at a dose of 10 mg/kg, the antibody-drug conjugate h6M24-vc0101 as prepared in Example 8 was administered intravenously at a dose of 5 mg/kg, and a negative control Vehicle group was set and administered intravenously with PBS at an equal dose, once a week for a total of 2 doses. After dosing, the tumor volume was measured twice a week using a vernier caliper and calculated according to the following formula: TV=(length*width^2)/2.

[2] = tested on: small cell lung cancer PDX LD1-2025-362797; assay: In vivo anti-tumor activity against human small cell lung cancer PDX LD1-2025-362797; conditions: NU/NU mice, i.v. 5 mg/kg, 1 dose, vs negative control
Protocol: 6-week-old NU/NU mice, female, weighing 18-21 g, were purchased from Beijing Vital River Laboratory Animal Technology Co., Ltd. The mice were subcutaneously inoculated with small cell lung cancer tumor mass (specimen no. 362797, obtained from Xi'an LIDE Biotech Co. Ltd.). When the average tumor volume reached 150 mm^3, the antibody-drug conjugates Ab13-T1000-exatecan and h6M24-T1000-exatecan as prepared in Example 5 were administered intravenously at a dose of 10 mg/kg, respectively, the antibody-drug conjugate h6M24-vc0101 as prepared in Example 8 was administered intravenously at a dose of 5 mg/kg, and a negative control Vehicle group was set and administered intravenously with PBS at an equal dose, once a week for a total of 1 dose. After dosing, the tumor volume was measured twice a week using a vernier caliper and calculated according to the following formula: TV=(length*width^2)/2.

[3] = tested on: cervical squamous cell carcinoma PDX LD1-0010-362343; assay: In vivo anti-tumor activity against human cervical squamous cell carcinoma PDX LD1-0010-362343; conditions: NU/NU mice, i.v. 5 mg/kg, once a week, 2 doses, vs negative control
Protocol: as §1, with “cervical” for “esophageal”, “362343,” for “361318,”

[4] = Size exclusion chromatography (SEC) for the degree of aggregation; assay type: physicochemical; conditions: integral analysis, product after preparation
Protocol: (§2) Activated charcoal powder (30 mg of powder per ml of liquid) was then added to the collection solution, which was suspended for 2 h at room temperature, centrifuged, and sterilized using a 0.22 μm filter membrane, and the activated charcoal particles were removed at the same time. The resulting product was calculated by UV for its concentration and DAR value, detected by hydrophobic chromatography (HIC) for product homogeneity, and detected by size exclusion chromatography (SEC) for the degree of aggregation. The products were placed in a refrigerator at −80° C. for cryopreservation.
as §2, with “At the end of the reaction, the coupling reaction mixture was immediately desalted and exchanged with histidine-acetic acid/NaCl buffer using a desalting column. Activated” for “Activated”, “product was” for “products were”, “cryopreservation. […]” for “cryopreservation.”

[5] = tested on: triple-negative breast cancer PDX LD1-2009-361918; assay type: in vivo; conditions: NU/NU mice, i.v. 5 mg/kg, once a week, 2 doses, vs negative control
Protocol: 6-week-old NU/NU mice, female, weighing 18-21 g, were purchased from Beijing Vital River Laboratory Animal Technology Co., Ltd. The mice were subcutaneously inoculated with triple-negative breast cancer tumor mass (specimen no. 361918, obtained from Xi'an LIDE Biotech Co. Ltd.). […] After dosing, the tumor volume was measured twice a week using a vernier caliper and calculated according to the following formula: TV=(length*width^2)/2.

[6] = tested on: colorectal cancer PDX LD1-2038-361980; assay: In vivo anti-tumor activity against human colorectal cancer PDX LD1-2038-361980; conditions: NU/NU mice, i.v. 5 mg/kg, once a week, 2 doses, vs negative control
Protocol: as §1, with “colorectal cancer” for “esophageal squamous cell carcinoma”, “361980,” for “361318,”

[7] = tested on: refractory ovarian cancer expressing PTK7, triple-negative breast cancer, and NSCLC; conditions: cited from earlier work
[8] = tested on: lung squamous cell carcinoma PDX LD1-0025-200615; assay: In vivo anti-tumor activity against human lung squamous cell carcinoma PDX LD1-0025-200615; conditions: NU/NU mice, i.v. 5 mg/kg, once a week, 2 doses, vs negative control
Protocol: as §1, with “lung” for “esophageal”, “200615,” for “361318,”

B1: h6M24-vc0101: control drug: h6M24 (cofetuzumab) linked to Aur0101 via mc-VC-PAB linker, DAR about 4 (conjugate, chains of the INN, looked up)
VH: QVQLVQSGPEVKKPGASVKVSCKASGYTFTDYAVHWVRQAPGKRLEWIGVISTYNDYTYNNQDFKGRVTMTRDTSASTAYMELSRLRSEDTAVYYCARGNSYFYALDYWGQGTSVTVSS
VL: EIVLTQSPATLSLSPGERATLSCRASESVDSYGKSFMHWYQQKPGQAPRLLIYRASNLESGIPARFSGSGSGTDFTLTISSLEPEDFAVYYCQQSNEDPWTFGGGTKLEIK
modifications: Aur0101 via mc-VC-PAB linker, DAR 4
tumor growth inhibition (tumor volume over time) [1]: partially inhibit tumor growth | tumor growth inhibition (tumor volume over time) [2]: does not produce any tumor growth inhibitory effect | tumor growth inhibition (tumor volume over time) [3]: significantly inhibit tumor growth | percentage of aggregates [4]: 1.39% | tumor growth inhibition (tumor volume over time) [5]: does not produce any tumor growth inhibitory effect | tumor growth inhibition (tumor volume over time) [6]: does not produce any tumor growth inhibitory effect | dose-limiting toxicity ([7]; highest dose assessed every 3 weeks): Two patients experienced a dose-limiting toxicity (grade 3 headache and fatigue) | objective response rate (ORR) ([7]; patients with NSCLC (6/31 patients)): 19% | objective response rate (ORR) ([7]; patients with refractory ovarian cancer expressing PTK7 (17/63 patients)): 27% | objective response rate (ORR) ([7]; patients with triple-negative breast cancer (6/29 patients)): 21% | tumor growth inhibition (tumor volume over time) [8]: partially inhibit tumor growth

— patent US12534541B2, “Anti-PTK7 antibody and uses thereof” (MABCARE THERAPEUTICS, priority 2023, dated 2026)
